Reference: the supplement of paper PMC12042874
± gives the uncertainty stated by the source.

Assay: amyloid nucleation score (Sup35N fusion, yeast selection) (log enrichment); library NNK1; higher = more nucleation; inactive = no reads after selection
Summary of the method: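 On medium lacking adenine and uracil, psi-negative yeast expressing peptides of 20 random codons fused to Sup35N were grown 7 days at 30°C after a 24-hour induction with 100 μM copper sulfate. Illumina sequencing of input and output plasmid inserts gave the reads, and sequences under 100 input reads were excluded. The nucleation score is the DiMSum log enrichment of output over input reads, centred on the mode score of non-aggregating sequences.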

| Substance | amyloid nucleation score |
| --- | --- |
| LRHTCVRPSWSNAIFMPNSA | 0.834 ± 0.57 |
| NWEWAFRCPLWCLWDYRSTM | 0.751 ± 0.57 |
| YPVVHDM | -0.426 ± 0.56 |
| VNSCFSQYYKGHPTLMHERL | 0.01 ± 0.39 |
| DPLRMILVISFRMVRFIQWP | 0.072 ± 0.32 |
| SFCPSMSNYTCIFPSTNLTY | 7.033 ± 0.053 |
| TRKWEYTSKVRVQRGSVYLL | 0.13 ± 0.65 |
| NCVTELYDLRGILVRNLCSG | -0.044 ± 0.21 |
| YSRYYVNVVWFLGKLRS | 0.012 ± 0.37 |
| PKKLRMYLPMHLSTPKRRLV | 0.565 ± 0.58 |
| TSFCIETSGSILIELYGCWA | -0.356 ± 0.5 |
| QCDVS | inactive |
| LSTGLKFACATRVSYALVRV | 0.117 ± 0.5 |
| LVNVGGQEIKVMR | 0.888 ± 0.2 |
| LWMHAGSGRIKLETGCGAKC | inactive |
| LRKTFF | 0.38 ± 0.33 |
| IWLRS | 0.779 ± 0.62 |
| TGVRHATTC | 1.13 ± 0.19 |
| FTDTEYLQGLDIGVGMERLY | -0.218 ± 0.65 |
| SEGMCIKLPVALNYSYVHLG | 3.36 ± 0.088 |
| AWLNRSYRMLHPMWGVCMDM | 1.26 ± 0.85 |
| IFVSSVRGAPYIYKCTKSRM | -0.504 ± 0.52 |
| DWSIDILYSVIRSPVNLINS | -1.01 ± 0.52 |
| YKASG | 0.794 ± 1.1 |
| AVEGCVFCWIRCVIRFLV | -0.642 ± 0.69 |

| Substance | amyloid nucleation score |
| --- | --- |
| VYGFDRFKVRRMGESLWWS | inactive |
| RLRVVL | -0.537 ± 0.64 |
| ESSGTFFP | -0.186 ± 0.9 |
| IPSGTVF | 0.34 ± 0.9 |
| IGSVCLQ | inactive |
| IEESSWLLDFRSGSALSEVS | -0.542 ± 0.86 |
| NKTVVLDHPHVCFPGSRSHL | inactive |
| THLLPFAGIGVCDLVRSAMG | 0.668 ± 0.93 |
| EYNQG | -0.76 ± 1.2 |
| MNCVLIVVPRMTLGNYRSSW | 5.21 ± 0.053 |
| SNIKLGFLRSLHIMKTSSDL | -0.113 ± 0.41 |
| KVKRFDGCSSRSKHVVTEI | 4.13 ± 0.076 |
| LSIRYWCYNLRLVQAHCFRV | -0.657 ± 0.56 |
| TLLNGFFATSYCGCFFGSRT | 3.95 ± 0.13 |
| NYTNTMWSSFLDYVVD | 0.272 ± 0.88 |
| WLVAHAPGH | 0.471 ± 0.62 |
| LRVQWRQSTFN | 0.865 ± 0.48 |
| YFYDTWGA | -0.235 ± 0.47 |
| PLSILRKMAGVVSGCTAPTS | 0.663 ± 0.7 |
| ALSYGIVAMMVVIGPGIVVC | 0.388 ± 0.27 |
| LCLISDMPKHFGCGYTKCSL | -1.17 ± 0.63 |
| DFVMGYYVELWFMYASL | 0.4 ± 0.21 |
| FVAVNILDMMKAYKLFENLF | -0.256 ± 0.22 |
| RWSAFSVYAWGAYKLRC | 2.41 ± 0.11 |
| WLTVITADSMAEGRQACRLP | 0.132 ± 0.46 |

| Substance | amyloid nucleation score |
| --- | --- |
| YLAQL | 0.558 ± 0.43 |
| RYVETNSGAE | 0.669 ± 0.43 |
| GFLVSEGFLIVGLLIRVRGL | 0.641 ± 0.37 |
| LGQLFHGGCD | 0.3 ± 0.43 |
| LTLFQYAFDVHETAVLKLEW | -0.166 ± 0.4 |
| DDCESFEMRAFM | 1 ± 0.55 |
| VRVFGVTEYNRSCSI | -0.847 ± 1.1 |
| IYLCCADFARIVMVTSTRWL | 0.052 ± 0.5 |
| NFACVFTSTSRMCRH | 3.85 ± 0.1 |
| IYFQVSRLMSVRRAMKSPKP | -0.666 ± 1.4 |
| RDMRLLAFRLPIRRFTRGST | -0.097 ± 0.44 |
| LKDCSCVERQD | -0.072 ± 0.38 |
| KLLPSKLCNASRFSFFYKES | -0.82 ± 0.81 |
| FDIMNDIK | 0.658 ± 0.52 |
| IIFHICRTGEDLTKSGCLSW | -0.494 ± 1.1 |
| MDTFSIMTYLAWQSNELLLI | 1.22 ± 0.23 |
| TPLYDIWDVSVDLPLPCIFS | inactive |
| NCRFRVVVRKSGTLLPVWVP | 0.542 ± 1 |
| HYVVG | -0.784 ± 0.74 |
| SHGSTLLARYCRINGWPATP | -0.167 ± 0.71 |
| TTALDFRMDAMEVFRRFDEA | 0.14 ± 0.39 |
| RVSRFELAIVSVEGSYWVPE | 0.607 ± 0.36 |
| VKNWMYWQGMSVCRVCRGFY | 1.02 ± 0.38 |
| ANSVQG | 0.9 ± 0.73 |
| TLCSSGKGRCLVAVT | 0.115 ± 1 |

| Substance | amyloid nucleation score |
| --- | --- |
| VHRDFGSENYSTLEVCNSLT | 1.16 ± 0.84 |
| FCLSMVVDWVGR | -0.342 ± 0.31 |
| GLVSRLCRFHFMCIACNPKL | 0.585 ± 0.43 |
| SLVCNMFLSILRYFGFLNRS | inactive |
| IMCPMWWLVLYNSSVQRYAE | 6.11 ± 0.07 |
| YFKEFWIWLW | inactive |
| RSVAHSYT | 0.661 ± 0.54 |
| NARWV | 0.613 ± 0.38 |
| CSTRGFGGD | -0.921 ± 1.1 |
| NPGNTN | 0.17 ± 0.55 |
| HPVIADDLSYAAVIKRYLGV | 0.267 ± 0.41 |
| LSYEDSSFNFLNSFYIKSWW | -0.161 ± 0.5 |
| YLAKISSHDPGIAMMEMTGR | 0.315 ± 0.35 |
| LIYFKGSS | 0.399 ± 0.79 |
| SGGPWVNCNFNT | 0.494 ± 0.47 |
| WVGQVLGREENCASASSFSE | -1.89 ± 2.7 |
| AGVLAV | -0.246 ± 0.46 |
| SWCPSQEWFMRYVFSTMCRT | 0.302 ± 0.57 |
| RVSCFRTRDRIFGVFTQSQV | -0.314 ± 1.2 |
| WDDSINCTTK | inactive |
| NNQSTGWCETN | inactive |
| SPTTRTCNLVKIQGTNLSHR | 1.36 ± 0.66 |
| ARATS | -0.53 ± 0.52 |
| YGFSNYRMIVQLYNLFSMYD | 3.04 ± 0.21 |
| KSDNVVTRLRLLSAEVQW | -0.295 ± 0.98 |

| Substance | amyloid nucleation score |
| --- | --- |
| WVAWTYMENLSCLYFETATM | -0.593 ± 0.57 |
| GLQFSFVEFFSLYVESEDHY | 0.332 ± 0.35 |
| TLEFLMPSYLFHLGRMVNLS | -0.927 ± 1.4 |
| KLSVGLRYCRPATRTSAHVM | 0.271 ± 0.35 |
| SCVFLGSWWRCGWMPGSHVP | 1.93 ± 0.29 |
| FNYFYVLYS | 5.35 ± 0.074 |
| YGLPLWCNMCSRSANRC | 0.365 ± 0.48 |
| VRKEKRNCAGLGRTVVWVRG | 0.461 ± 0.35 |
| LGAQGLFVYSLLCQT | -0.126 ± 0.68 |
| RCKELDCSPDSGITVTRSLI | 1.12 ± 0.63 |
| SAPMVFESDPREFAAGMSRL | -0.53 ± 0.39 |
| LSNKLEYPMSPLISAVLFSA | inactive |
| IAREVSSVTVSPQEGTRWWG | 0.276 ± 0.3 |
| LAFGFTSWS | 0.49 ± 0.38 |
| VMQFGVSGNAGC | 0.778 ± 0.55 |
| RKFGPMG | 0.848 ± 1 |
| RMVGYVRGMAFRRSVSRRIG | 0.311 ± 0.68 |
| SHKRIWDIFNIGFHQCD | 0.048 ± 0.59 |
| PYDYRI | -0.503 ± 0.46 |
| GTLVLYFCGVC | 6.62 ± 0.059 |
| YRSSGWRNTSSRAVLCCLDE | -0.356 ± 0.38 |
| VYATSSIKIAVPVLHQAVLP | 3.14 ± 0.096 |
| VGFVATNCRWSCFS | 5.5 ± 0.11 |
| GGAHSY | 0.233 ± 0.5 |
| CTSDHSSFAKFLLLTCCLLL | 0.841 ± 0.92 |

| Substance | amyloid nucleation score |
| --- | --- |
| LSLNIYCMRS | 7.155 ± 0.045 |
| VIRYSIKSCFLYIKTYQGYM | -0.907 ± 0.43 |
| ELTLGLCSYSVRRSCGEGSW | 6.62 ± 0.082 |
| YHILGCKIVNVIDTALGPWL | 5.8 ± 0.06 |
| NTLKNCCLYIAVRCNAP | -0.974 ± 1.2 |
| FASLFYKLQASLFTLDNIMH | -0.006 ± 0.88 |
| ALRIHGLCFEVVCMRIWSRR | 0.436 ± 0.46 |
| IGPGTWGLSLYRDRILITTM | -0.037 ± 0.89 |
| GMPGHFLLLKLGYFANRTNR | -1.25 ± 1.1 |
| YFYTSHFSLLTSTQFIYRLG | 0.392 ± 0.33 |
| VDISVAYRC | -1.59 ± 1.3 |
| RSELI | -0.211 ± 0.36 |
| HWSSFPNVLYIM | -0.106 ± 0.44 |
| TPCLKQLLLSSLILEGP | -0.6 ± 0.64 |
| FDKGVSIRPSAWRDPRVWPS | 0.417 ± 0.47 |
| PNTYGGIMECYV | -0.233 ± 0.42 |
| LSLTRAMGIYFRWVLSRSFG | -0.837 ± 2.4 |
| GLRATVYITLRFE | -0.442 ± 0.43 |
| VVCRCTYFRLITGDSSL | -0.136 ± 0.8 |
| MLTQPAEAKEARVSFCSLYM | 1.01 ± 0.53 |
| MSLYYPSFDQPITKRVRLFF | -0.82 ± 1.4 |
| FRRHYNKMNFFVGFRERMCG | -0.262 ± 0.49 |
| VVLAMTVRLWC | -0.667 ± 1.3 |
| SDRDVVRVIYNSVGGTVWFG | 1.07 ± 0.19 |
| KSRAGMNKACTQLYPLV | -0.215 ± 0.34 |

| Substance | amyloid nucleation score |
| --- | --- |
| YVCDKFYGNAQCF | 0.644 ± 0.4 |
| GFSSMRYEGFGTGKCVDFLS | 0.281 ± 0.22 |
| GGELMAFTA | 0.553 ± 0.49 |
| SFNVNLGSHRDVMIVFSF | 6.24 ± 0.064 |
| VRVKLKGLFGFNWDG | 0.36 ± 1.2 |
| YGGLEVSLGALQNVGVKPYT | -0.189 ± 1.1 |
| RGNWIRS | -0.533 ± 0.77 |
| VKVHEDSIRMEENSSDTYFK | -0.218 ± 0.34 |
| GFMICVADTGTANSSYVDVF | -0.201 ± 0.36 |
| RQIGTAFSDYLHGWCVFSFR | 3.88 ± 0.11 |
| VIQHIYAKDSNCSHLV | -0.529 ± 0.52 |
| YLFGGSWDCGLYISGIPCWS | 1 ± 0.48 |
| KVEWVSDTRVNLLGTFVLKA | 1.18 ± 0.43 |
| RNKMMWLIICQGPPYRAWSP | 5.07 ± 0.07 |
| FKIFD | 1.15 ± 0.81 |
| ISIIVVKFDMLLSNHHNSDA | 0.486 ± 0.58 |
| HCVTFACC | 0.523 ± 0.53 |
| GVADMAVRGQCSHYSVAWST | -1.07 ± 0.82 |
| DFGFLF | 0.851 ± 0.37 |
| LSCSFDESW | 0.024 ± 0.24 |
| LISFSCVVNSLAEPRYIFLS | 1.13 ± 0.88 |
| TMSRQHKTGPNGSRAL | -0.073 ± 0.79 |
| FSRFLYEYGCGELVATFLPW | 0.517 ± 0.24 |
| CQPLLSMYLVHYTA | 0.116 ± 0.2 |
| SYYDSQYGLYGESVCL | 0.738 ± 0.72 |
